# Laboratory results as given in patent US20010046966.
# How the values were obtained:
# [1] = target: GATA-3 (UniProt P23772); experiment: cell_activity; conditions: NIH3T3 luciferase
# [2] = target: GATA-2 (UniProt O09100); experiment: cell_activity; conditions: NIH3T3 luciferase
# GATA-2, sequence (O09100 whole entry): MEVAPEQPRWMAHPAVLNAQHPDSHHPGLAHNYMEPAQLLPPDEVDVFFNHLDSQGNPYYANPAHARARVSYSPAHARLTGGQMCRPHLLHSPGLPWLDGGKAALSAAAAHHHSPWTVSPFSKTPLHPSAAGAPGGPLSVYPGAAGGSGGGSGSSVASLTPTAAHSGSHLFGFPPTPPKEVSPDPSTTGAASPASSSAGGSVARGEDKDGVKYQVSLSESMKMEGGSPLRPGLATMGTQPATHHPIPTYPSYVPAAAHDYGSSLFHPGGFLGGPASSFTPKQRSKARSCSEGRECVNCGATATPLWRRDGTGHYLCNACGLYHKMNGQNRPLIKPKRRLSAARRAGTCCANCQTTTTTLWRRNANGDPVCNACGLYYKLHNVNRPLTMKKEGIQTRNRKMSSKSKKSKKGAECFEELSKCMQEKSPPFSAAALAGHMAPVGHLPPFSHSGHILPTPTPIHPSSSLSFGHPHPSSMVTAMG
# GATA-3, sequence (P23772 whole entry): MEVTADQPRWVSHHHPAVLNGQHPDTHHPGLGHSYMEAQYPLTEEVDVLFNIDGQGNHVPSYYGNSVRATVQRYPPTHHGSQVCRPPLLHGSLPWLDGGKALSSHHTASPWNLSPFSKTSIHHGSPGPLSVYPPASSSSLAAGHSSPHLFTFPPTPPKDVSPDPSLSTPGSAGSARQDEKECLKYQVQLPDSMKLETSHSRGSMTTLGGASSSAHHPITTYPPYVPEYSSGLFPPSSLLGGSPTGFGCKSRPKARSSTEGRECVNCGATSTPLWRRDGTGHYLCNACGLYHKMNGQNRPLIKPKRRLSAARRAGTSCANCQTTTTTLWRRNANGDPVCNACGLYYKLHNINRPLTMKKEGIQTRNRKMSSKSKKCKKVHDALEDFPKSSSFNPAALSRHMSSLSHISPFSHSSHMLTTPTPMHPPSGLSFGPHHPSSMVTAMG
substance,measurement,setting,value
PPAR-gamma2 promoter -603 to +62 luciferase reporter,activity (fold suppression),[1],5
same,activity (fold suppression),[2],5
